The labels stand for the following.
B4: CLEC14A with regions 97-108 of CD141 (receptor)
chain: EHPTADRAGCSASGACYSLHHATMKRQAAEEACILRGGALSTVRAGAELRAVLALLRAGPGPGGGSKDLLFWVALQLPPGCGDPKRLPLRGFSWLSSDPGGLESDTLQWVEEPQRSCTARRCAVLQATGGVEPAGWKEMRCHLRANGYLCKYQFEVLCPAPRPGAASNLSYRAPFQLHSAALDFSPPGTEVSALCRGQLPISVTCIADEIGARWDKLSGDVLCPCPGRYLRAGKCAELPNCLDDLGGFACECATGFELGKDGRSCVTSGEGQPTLGGTGVPTRRPPATATSPVPQRTWPIRVDEKLGETPLVPEQDNSVTSIPEIPRWGSQSTMSTLQMSLQAESKATITPSGSVISKFNSTTSSATPQAFDSSSAVVFIFVSTAVVVLVILTMTVLGLVKLCFHESPSSQPRKESMGPPGLESDPEPAALGSSSAHCTNNGVKVGDCDLRDRAEGALLAESPLGSSDA
notes: also called this mutant; not shown: C-terminal GFP tag (all constructs have one)

Assay [1] addresses T1, full-length human MMRN2 with a His tag overexpressed in HEK293T cells (human, UniProt Q9H8L6 23-949).
T1 construct: Used as lysate of transfected HEK293T cells; also called hMMRN2; MMRN2 protein lysate; not shown: His tag of the pHL-Avitag3 vector
T1 sequence: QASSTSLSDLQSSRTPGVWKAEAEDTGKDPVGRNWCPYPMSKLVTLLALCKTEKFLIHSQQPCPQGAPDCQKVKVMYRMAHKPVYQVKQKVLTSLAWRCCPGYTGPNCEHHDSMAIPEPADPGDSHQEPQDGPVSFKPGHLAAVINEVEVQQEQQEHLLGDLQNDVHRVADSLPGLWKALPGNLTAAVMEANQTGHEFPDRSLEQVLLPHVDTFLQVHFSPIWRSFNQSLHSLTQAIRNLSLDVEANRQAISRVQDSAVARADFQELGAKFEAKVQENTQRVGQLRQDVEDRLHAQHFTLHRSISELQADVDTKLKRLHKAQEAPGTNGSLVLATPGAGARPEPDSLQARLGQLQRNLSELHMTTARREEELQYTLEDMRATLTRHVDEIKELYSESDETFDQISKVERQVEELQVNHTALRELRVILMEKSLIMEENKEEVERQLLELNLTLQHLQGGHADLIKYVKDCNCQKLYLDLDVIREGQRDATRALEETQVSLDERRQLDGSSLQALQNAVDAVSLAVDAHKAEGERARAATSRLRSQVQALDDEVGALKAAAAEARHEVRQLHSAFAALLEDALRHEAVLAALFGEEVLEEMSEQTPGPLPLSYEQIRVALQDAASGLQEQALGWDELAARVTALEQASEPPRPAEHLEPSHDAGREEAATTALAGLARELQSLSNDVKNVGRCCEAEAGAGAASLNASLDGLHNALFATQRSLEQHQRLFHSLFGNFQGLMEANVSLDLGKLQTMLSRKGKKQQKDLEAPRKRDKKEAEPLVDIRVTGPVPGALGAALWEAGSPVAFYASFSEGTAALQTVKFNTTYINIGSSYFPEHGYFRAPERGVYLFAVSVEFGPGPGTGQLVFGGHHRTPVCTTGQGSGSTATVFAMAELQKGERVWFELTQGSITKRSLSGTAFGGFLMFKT
The experiment in a line: far Western blot of HEK293T lysates with MMRN2 protein lysate, non-reduced. The text has this: FIG. 13—MMRN2 directly binds to either the C-type lectin or sushi domain of CLEC14A under non-reduced conditions. HEK293T cells were mock transfected or transfected with pCS2 vectors containing CLEC14A wild type (WT) or constructs with each major domain deleted (Δ) with an N-terminal HA tag. Upon far western blotting with MMRN2 protein lysate, binding can be seen in all mutants except those missing the C-type lectin domain (CTLD) or the sushi domain. An anti-HA blot was included to show all mutant proteins were expressed.

For assay [2], the target named is B4. The assay can be described thus: flow cytometry on HEK293T cells.
Assay [3] deals with T2, wild type thrombomodulin with GFP tag expressed in HEK293T cells (UniProt P07204 19-575).
T2 construct: whole, on cells; also called WT CD141; CD141; not shown: C-terminal GFP tag
The experiment in a line: flow cytometry on GFP-gated HEK293T cells. The protocol: (§1) FIG. 15—Binding of CRT antibodies was analysed using flow cytometry. All constructs have a C-terminus GFP tag so green cells were gated and stained red. All CRT antibodies bind to CLEC14A wild type with a C terminal GFP tag expressed in HEK293T cells. None of the CRT antibodies bind to wild type thrombomodulin with GFP tag expressed in HEK293T cells.
(§2) Binding of CRT antibodies was analysed using flow cytometry. All constructs have a C-terminus GFP tag so green cells were gated and stained red. All CRT antibodies bind WT CLEC14A and—as expected—none binds to WT CD141 (FIG. 15). In addition, none of the antibodies bound to Chimera 5 (except slight binding by CRT2) and all of the antibodies bind to Chimera 6 (except CRT2) (FIG. 15). This confirms that the binding site of the antibodies CRT1, 3, 4 and 5 and MMRN2 are within the C type lectin domain. It is possible that CRT2 binds on a region between the CTLD and sushi domain.
On the technique in general: In flow cytometry, cells or beads pass a laser one at a time.

Assay [4] deals with Chimera 6 (CLEC14A with SUSHI of CD141) fused to GFP tag. The assay can be described thus: flow cytometry on GFP-gated HEK293T cells. The protocol: as §1, §2
The target in assay [5] is T3, CLEC14A with regions 122-142 of CD141 (human, UniProt Q86T13 22-490).
T3 construct: also called 122-142 chimera; not shown: C-terminal GFP tag (all constructs have one)
T3 sequence: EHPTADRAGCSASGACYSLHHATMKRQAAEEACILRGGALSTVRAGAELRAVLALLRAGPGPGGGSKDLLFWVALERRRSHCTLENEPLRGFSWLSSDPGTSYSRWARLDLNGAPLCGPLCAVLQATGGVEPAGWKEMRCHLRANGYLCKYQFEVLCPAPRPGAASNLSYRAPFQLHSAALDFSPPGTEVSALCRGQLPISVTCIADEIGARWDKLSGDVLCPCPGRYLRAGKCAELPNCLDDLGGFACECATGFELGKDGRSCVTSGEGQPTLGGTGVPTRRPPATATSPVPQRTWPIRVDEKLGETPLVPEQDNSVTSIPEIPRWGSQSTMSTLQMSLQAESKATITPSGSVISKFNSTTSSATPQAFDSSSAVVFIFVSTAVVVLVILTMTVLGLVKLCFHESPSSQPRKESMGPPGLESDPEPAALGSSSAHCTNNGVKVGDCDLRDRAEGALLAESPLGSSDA
The experiment in a line: flow cytometry; the filing says the chimera did not fold correctly.

The target of assay [6] is T1, full-length human MMRN2 with a His tag …. The assay can be described thus: method for MMRN2 not told.

T2 sequence (P07204 19-575): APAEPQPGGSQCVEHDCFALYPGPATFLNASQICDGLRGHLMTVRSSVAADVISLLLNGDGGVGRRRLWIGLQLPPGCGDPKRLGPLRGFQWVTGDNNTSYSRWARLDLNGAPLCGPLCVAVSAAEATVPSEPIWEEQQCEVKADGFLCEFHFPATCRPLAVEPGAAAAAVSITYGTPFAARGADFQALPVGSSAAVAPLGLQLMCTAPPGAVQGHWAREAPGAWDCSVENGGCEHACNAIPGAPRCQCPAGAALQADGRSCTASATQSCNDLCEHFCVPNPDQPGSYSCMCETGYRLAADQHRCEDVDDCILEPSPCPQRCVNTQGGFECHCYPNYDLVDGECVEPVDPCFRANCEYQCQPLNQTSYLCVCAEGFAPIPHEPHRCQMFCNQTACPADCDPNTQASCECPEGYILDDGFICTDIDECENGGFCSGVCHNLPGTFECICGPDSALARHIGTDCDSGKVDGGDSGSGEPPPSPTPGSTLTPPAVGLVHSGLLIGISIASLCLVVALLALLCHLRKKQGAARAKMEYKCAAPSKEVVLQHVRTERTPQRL

B1: HA-CLEC14A (CLEC14A wild type with an N-terminal HA tag) expressed in HEK293T cells (receptor)
chain: EHPTADRAGCSASGACYSLHHATMKRQAAEEACILRGGALSTVRAGAELRAVLALLRAGPGPGGGSKDLLFWVALERRRSHCTLENEPLRGFSWLSSDPGGLESDTLQWVEEPQRSCTARRCAVLQATGGVEPAGWKEMRCHLRANGYLCKYQFEVLCPAPRPGAASNLSYRAPFQLHSAALDFSPPGTEVSALCRGQLPISVTCIADEIGARWDKLSGDVLCPCPGRYLRAGKCAELPNCLDDLGGFACECATGFELGKDGRSCVTSGEGQPTLGGTGVPTRRPPATATSPVPQRTWPIRVDEKLGETPLVPEQDNSVTSIPEIPRWGSQSTMSTLQMSLQAESKATITPSGSVISKFNSTTSSATPQAFDSSSAVVFIFVSTAVVVLVILTMTVLGLVKLCFHESPSSQPRKESMGPPGLESDPEPAALGSSSAHCTNNGVKVGDCDLRDRAEGALLAESPLGSSDA
notes: also called CLEC14A wild type (WT); not shown: N-terminal HA tag
For the molecule B1, in assay [1], the binding result is reported as “binds”.

B2: CLEC14A monoclonal antibody C4 (antibody, V domains shown)
VH: QVQLQQSGAELMKPGASVKISCKATGYTFSSYWIEWVNRRPGHGLEWIGEILPGSGSTNYNEKFKGKATFTADTSSNTAYMQLSSLTSEDSAVYYCARGGDYDEEYYLMDYWGQGTTLTVSS
VL: QIVLTQSPAIMSASPGEKVTMTCSASSSVSYMYWYQQKPGSSPRLLIYDTSNLASGVPVRFSGSGSGTSYSLTISRMEAEDAATYYCQQWSSYPLTFGAGTKLEIKR
notes: Mouse monoclonal antibody raised against murine CLEC14A-Fc; The entries carry cloning residues (N-terminal MA on VH, C-terminal AA on VL); also called CRT4; clone C4
As for B2, the binding result in assay [2] is recorded as “no binding”; in assay [3], “no binding”; in assay [4], “binds”; in assay [5] it was “no binding”.

B3: CLEC14A monoclonal antibody C5 (antibody, V domains shown)
VH: AEVQLQQSGAELMKPGASVKISCKATGYTFSSYWIEWVNQRPGHGLEWIGEILPGSGSTNYNEKFKGKATFTADTSSNTAYMQLSSLTSEDSAVYYCARGGDYDEEYYAMDYWGQGTSVTL
VL: QIVLTQSPAIMSASPGEKVTMTCSASSSVSYMYWYQQKPGSSPRLLIYDTSNLASGVPVRFSGSGSGTSYSLTISRMEAEDGATYYCQQWSSYPLTFGAGTKLELKR
notes: CLEC14A monoclonal antibody; also called CRT5
On to B3, for which the binding result in assay [2], in assay [3] and in assay [5] was “no binding” throughout.

Consider B4, for which the binding result in assay [6] is “no binding”.

Values taken from patent publication US20180282418A1 (CANCER RESEARCH TECHNOLOGY, published 2018).
